Reference: article PMC10397247
One block for each binder: values may come before it.

Legend:
[1] = biological target: T1, 4H3134-AA; experiment: two-hybrid library CCmax; details: mean of both orientations;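 further: natural log of median RNA to DNA barcode read ratio; higher means stronger binding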
T1 chain: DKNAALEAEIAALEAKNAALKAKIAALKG

[2] = biological target: T2, 4H816-AA; experiment: two-hybrid library CCmax; details: mean of both orientations;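 further: natural log of median RNA to DNA barcode read ratio; higher means stronger binding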
T2 chain: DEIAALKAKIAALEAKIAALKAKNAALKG

[3] = biological target: T3, 4H510-AA; experiment: two-hybrid library CCmax; details: mean of both orientations;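 further: natural log of median RNA to DNA barcode read ratio; higher means stronger binding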
T3 chain: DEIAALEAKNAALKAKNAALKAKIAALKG

[4] = biological target: T4, 4H87-AA; experiment: two-hybrid library CCmax; details: mean of both orientations;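 further: natural log of median RNA to DNA barcode read ratio; higher means stronger binding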
T4 chain: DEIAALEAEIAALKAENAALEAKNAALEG

[5] = biological target: T5, 4H3409-AA; experiment: two-hybrid library CCmax; details: mean of both orientations
T5 chain: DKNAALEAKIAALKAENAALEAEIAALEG

[6] = biological target: T6, 4H390-AA; experiment: two-hybrid library CCmax; details: mean of both orientations
T6 chain: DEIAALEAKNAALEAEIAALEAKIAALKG

[7] = biological target: T7, 4H3625-AA; experiment: two-hybrid library CCmax; details: mean of both orientations
T7 chain: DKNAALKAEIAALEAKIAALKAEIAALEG

[8] = biological target: T8, 4H3940-AA; experiment: two-hybrid library CCmax; details: mean of both orientations
T8 chain: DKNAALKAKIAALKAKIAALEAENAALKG

[9] = biological target: T9, 4H775-AA; experiment: two-hybrid library CCmax; details: mean of both orientations
T9 chain: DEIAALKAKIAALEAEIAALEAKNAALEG

[10] = biological target: T10, 4H2985-AA; experiment: two-hybrid library CCmax; details: mean of both orientations
T10 chain: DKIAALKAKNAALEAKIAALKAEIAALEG

[11] = biological target: T11, 4H2873-AA; experiment: two-hybrid library CCmax
T11 chain: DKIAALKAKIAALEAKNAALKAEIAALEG

[12] = biological target: T12, 4H796-bA; experiment: two-hybrid library CCNG1
T12 chain: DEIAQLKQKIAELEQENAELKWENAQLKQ

[13] = biological target: T13, 4H349-bA; experiment: two-hybrid library CCNG1
T13 chain: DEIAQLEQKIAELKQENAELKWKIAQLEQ

[14] = biological target: T14, 4H3381-bA; experiment: two-hybrid library CCNG1
T14 chain: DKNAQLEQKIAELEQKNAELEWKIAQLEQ

[15] = biological target: T15, 4H3041-bA; experiment: two-hybrid library CCNG1
T15 chain: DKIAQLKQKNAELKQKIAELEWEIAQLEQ

[16] = biological target: T16, 4H949-bA; experiment: two-hybrid library CCNG1
T16 chain: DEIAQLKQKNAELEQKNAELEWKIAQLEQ

[17] = biological target: T17, 4H3364-bA; experiment: two-hybrid library CCNG1
T17 chain: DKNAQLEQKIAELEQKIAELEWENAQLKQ

[18] = biological target: T18, 4H730-bA; experiment: two-hybrid library CCNG1
T18 chain: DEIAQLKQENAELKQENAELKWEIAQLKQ

[19] = biological target: T19, 4H56-bA; experiment: two-hybrid library CCNG1
T19 chain: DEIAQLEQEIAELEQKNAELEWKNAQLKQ

[20] = biological target: T20, 4H932-bA; experiment: two-hybrid library CCNG1
T20 chain: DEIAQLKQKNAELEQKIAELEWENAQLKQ

[21] = biological target: T21, 4H3297-bA; experiment: two-hybrid library CCNG1
T21 chain: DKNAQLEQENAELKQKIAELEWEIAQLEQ

[22] = biological target: T22, 4H234-AA; experiment: two-hybrid library CCmax; details: mean of both orientations
T22 chain: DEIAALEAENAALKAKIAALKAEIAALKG

[23] = biological target: T23, 4H3343-AA; experiment: two-hybrid library CCmax; details: mean of both orientations
T23 chain: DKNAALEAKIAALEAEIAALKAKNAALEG

[24] = biological target: T24, 4H3655-AA; experiment: two-hybrid library CCmax; details: mean of both orientations
T24 chain: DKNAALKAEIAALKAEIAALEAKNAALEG

[25] = biological target: T25, 4H906-AA; experiment: two-hybrid library CCmax; details: mean of both orientations
T25 chain: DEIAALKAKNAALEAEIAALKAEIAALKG

[26] = biological target: T26, 4H2575-AA; experiment: two-hybrid library CCmax; details: mean of both orientations
T26 chain: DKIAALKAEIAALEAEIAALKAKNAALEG

[27] = biological target: T27, 4H678-AA; experiment: two-hybrid library CCmax; details: mean of both orientations
T27 chain: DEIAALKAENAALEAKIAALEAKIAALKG

[28] = biological target: T28, 4H794-AA; experiment: two-hybrid library CCmax; details: mean of both orientations
T28 chain: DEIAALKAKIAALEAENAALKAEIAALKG

[29] = biological target: T29, 4H566-AA; experiment: two-hybrid library CCmax; details: mean of both orientations
T29 chain: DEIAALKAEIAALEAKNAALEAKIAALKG

[30] = biological target: T30, 4H3427-AA; experiment: two-hybrid library CCmax; details: mean of both orientations
T30 chain: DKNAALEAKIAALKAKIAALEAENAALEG

[31] = biological target: T31, 4H2883-AA; experiment: two-hybrid library CCmax; details: mean of both orientations
T31 chain: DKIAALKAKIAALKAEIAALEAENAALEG

[32] = biological target: T32, 4H3627-AA; experiment: two-hybrid library CCmax; details: mean of both orientations
T32 chain: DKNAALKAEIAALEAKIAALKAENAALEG

[33] = biological target: T33, 4H342-AA; experiment: two-hybrid library CCmax; details: mean of both orientations
T33 chain: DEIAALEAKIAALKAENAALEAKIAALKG

[34] = biological target: T34, 4H335-AA; experiment: two-hybrid library CCmax; details: mean of both orientations
T34 chain: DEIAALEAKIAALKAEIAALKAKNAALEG

[35] = biological target: T35, 4H881-AA; experiment: two-hybrid library CCmax; details: mean of both orientations
T35 chain: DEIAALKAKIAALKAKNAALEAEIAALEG

[36] = biological target: T36, 4H2949-AA; experiment: two-hybrid library CCmax; details: mean of both orientations
T36 chain: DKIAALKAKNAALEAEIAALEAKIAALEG

[37] = biological target: T37, 4H48-AA; experiment: two-hybrid library CCmax; details: mean of both orientations
T37 chain: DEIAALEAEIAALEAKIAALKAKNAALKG

[38] = biological target: T38, 4H3606-AA; experiment: two-hybrid library CCmax; details: mean of both orientations
T38 chain: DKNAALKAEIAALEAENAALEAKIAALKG

[39] = biological target: T39, 4H2754-AA; experiment: two-hybrid library CCmax; details: mean of both orientations
T39 chain: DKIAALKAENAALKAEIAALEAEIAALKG

[40] = biological target: T40, 4H3844-AA; experiment: two-hybrid library CCmax; details: mean of both orientations
T40 chain: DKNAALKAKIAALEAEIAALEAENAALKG

[41] = biological target: T41, 4H993-AA; experiment: two-hybrid library CCmax; details: mean of both orientations
T41 chain: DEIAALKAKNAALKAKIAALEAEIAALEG

[42] = biological target: T42, 4H780-AA; experiment: two-hybrid library CCmax; details: mean of both orientations
T42 chain: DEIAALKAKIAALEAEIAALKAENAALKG

[43] = biological target: T43, 4H317-AA; experiment: two-hybrid library CCmax; details: mean of both orientations
T43 chain: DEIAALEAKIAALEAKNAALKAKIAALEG

[44] = biological target: T44, 4H2944-AA; experiment: two-hybrid library CCmax; details: mean of both orientations
T44 chain: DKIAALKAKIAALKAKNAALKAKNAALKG

[45] = biological target: T45, 4H717-AA; experiment: two-hybrid library CCmax; details: mean of both orientations
T45 chain: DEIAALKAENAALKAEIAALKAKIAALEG

[46] = biological target: T46, 4H605-AA; experiment: two-hybrid library CCmax; details: mean of both orientations
T46 chain: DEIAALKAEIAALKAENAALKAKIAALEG

[47] = biological target: T47, 4H2277-AA; experiment: two-hybrid library CCmax; details: mean of both orientations
T47 chain: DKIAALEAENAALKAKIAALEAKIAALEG

[48] = biological target: T48, 4H3112-AA; experiment: two-hybrid library CCmax; details: mean of both orientations
T48 chain: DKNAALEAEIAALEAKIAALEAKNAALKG

[49] = biological target: T49, 4H2190-AA; experiment: two-hybrid library CCmax
T49 chain: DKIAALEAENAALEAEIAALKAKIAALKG

[50] = biological target: T50, 4H3921-AA; experiment: two-hybrid library CCmax; details: mean of both orientations
T50 chain: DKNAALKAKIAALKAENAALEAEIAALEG

[51] = biological target: T51, 4H454-AA; experiment: two-hybrid library CCmax; details: mean of both orientations
T51 chain: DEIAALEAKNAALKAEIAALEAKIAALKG

[52] = biological target: T52, 4H2466-AA; experiment: two-hybrid library CCmax; details: mean of both orientations
T52 chain: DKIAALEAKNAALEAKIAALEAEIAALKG

[53] = biological target: T53, 4H2505-AA; experiment: two-hybrid library CCmax; details: mean of both orientations
T53 chain: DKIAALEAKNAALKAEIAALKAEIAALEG

[54] = biological target: T54, 4H429-AA; experiment: two-hybrid library CCmax; details: mean of both orientations
T54 chain: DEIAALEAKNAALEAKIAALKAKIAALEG

[55] = biological target: T55, 4H2354-AA; experiment: two-hybrid library CCmax; details: mean of both orientations
T55 chain: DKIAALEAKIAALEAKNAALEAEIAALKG

[56] = biological target: T56, 4H2642-AA; experiment: two-hybrid library CCmax; details: mean of both orientations
T56 chain: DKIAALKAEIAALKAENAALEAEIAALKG

[57] = biological target: T57, 4H2729-AA; experiment: two-hybrid library CCmax; details: mean of both orientations
T57 chain: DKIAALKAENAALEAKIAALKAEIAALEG

[58] = biological target: T58, 4H2393-AA; experiment: two-hybrid library CCmax; details: mean of both orientations
T58 chain: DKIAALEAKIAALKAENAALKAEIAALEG

[59] = biological target: T59, 4H2837-AA; experiment: two-hybrid library CCmax; details: mean of both orientations
T59 chain: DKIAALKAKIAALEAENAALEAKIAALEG

[60] = biological target: T60, 4H2617-AA; experiment: two-hybrid library CCmax; details: mean of both orientations
T60 chain: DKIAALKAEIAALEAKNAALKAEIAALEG

[61] = biological target: T61, O8-AA; experiment: two-hybrid library CCmax
T61 chain: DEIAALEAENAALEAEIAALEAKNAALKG

[62] = biological target: T62, P10-AA; experiment: two-hybrid library CCmax; details: mean of both orientations
T62 chain: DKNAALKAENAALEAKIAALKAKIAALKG

[63] = biological target: T63, P9-AA; experiment: two-hybrid library CCmax; details: mean of both orientations
T63 chain: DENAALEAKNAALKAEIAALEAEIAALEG

interaction score [12]: -1.16
interaction score [13]: -1.44
interaction score [14]: -1.17
interaction score [15]: 0.985
interaction score [16]: -1.15
interaction score [17]: -1
interaction score [18]: -1.65
interaction score [19]: 0.805
interaction score [20]: -0.693
interaction score [21]: -0.21
Binder: DKIAQLKQKNAELKQKIAELEWEIAQLEQ [4H3041-bA]

interaction score [22]: 1.66
interaction score [23]: -1.32
interaction score [24]: 1.73
interaction score [25]: 1.04
interaction score [26]: -0.718
interaction score [27]: -0.81
interaction score [28]: -0.883
interaction score [29]: 0.26
interaction score [30]: -1.15
interaction score [31]: 0.596
interaction score [32]: -0.558
interaction score [33]: 0.437
interaction score [34]: 0.22
interaction score [35]: 0.176
interaction score [36]: 2.07
interaction score [37]: -0.0631
interaction score [38]: -0.529
interaction score [39]: 2.3
interaction score [40]: 0.147
interaction score [41]: 2.17
interaction score [42]: -1.55
interaction score [43]: 2.09
interaction score [44]: -1.51
interaction score [45]: 1.16
interaction score [46]: -1.55
interaction score [47]: 1.06
interaction score [48]: -0.916
interaction score [49]: 2.19
interaction score [50]: -1.21
interaction score [51]: 1.72
interaction score [52]: 0.489
interaction score [53]: 2.21
interaction score [54]: 1.95
interaction score [55]: -0.303
interaction score [56]: -0.738
interaction score [57]: 2.26
interaction score [58]: 0.996
interaction score [59]: -1.55
interaction score [60]: 0.788
Binder: DKIAALEAENAALEAEIAALKAKIAALKG [4H2190-AA]

Continued, binder first:

Binder: DKIAALKAKIAALEAKNAALKAEIAALEG [4H2873-AA]
interaction score [1]: 1.06
interaction score [2]: -0.999
interaction score [3]: -0.174
interaction score [4]: 0.464
interaction score [5]: 0.324
interaction score [6]: 2.21
interaction score [7]: 1.8
interaction score [8]: -1.33
interaction score [9]: -0.187
interaction score [10]: 2.29
interaction score [11]: 0.429

Binder: DEIAALEAENAALEAEIAALEAKNAALKG [O8-AA]
interaction score [61]: -1.16
interaction score [62]: -0.856
interaction score [63]: -1.26
